Test results from the nanobody polyreactivity screen of Harvey et al. (2022).

Assay: yeast display, Sf9 membrane polyspecificity reagent, FACS + sequencing; frameworks hold sequencing errors
Procedure, shortened: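 After 36–48 hours of galactose induction, yeast (Saccharomyces cerevisiae BJ5465) displaying a synthetic nanobody library were stained at 4 °C for 1 hour with 10% biotinylated, detergent-solubilized Sf9 membrane reagent. Streptavidin microbeads enriched the stained cells before FACS sorting into low and high (top ~1%) gates on anti-HA and streptavidin fluorescence. Each clone's polyreactivity label reflects its gate of origin.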

Sequence | polyreactivity (PSR sort gate)
QVQLVESGGGLVQAGGRLGLSCAASGRSFPWYTMGWYRQATGKERELVAAISSSGSTTYYADSVNGRFTISRDNAKITVYLQMNSLKPEDTAVYYCNKADPPEYDYWGQGTPVTVSS | high polyreactivity
QVQLVESGGGLVQAGGRLLLICAASGRIFIANAMGWYSKAPGKERELVATISRSGVSTNYADSVKVRFTISRDNAKNSVYLQMNSLKPEDTAVYYCADIRSGGQGQGYGYWGQVTQVTVSS | high polyreactivity
QVQLVESGGGLVQAGGRLPLSCAASGSTYSVNAMGWYRQAPGKERELVAAITRSGGSTYYADSVKGRFTISRDNAKNTVYLQMNSLNPEDTAVYYCAAEIYPLGEYWGQGTQVTVSS | low polyreactivity
QVQLVESGGGLVQAGGRLRFSCAASGSTIRRKAMGWSRQAPGKERELVARISYRGGSTYYADSVKGRFTSSRDNAKNTVYLQMNSLKPEATAVYYCAAPVYGVPEYDYWGQGPQVTVSS | low polyreactivity
QVQLVESGGGLVQAGGRLRISCAASGSIFEINAMGWYRQAPGKERELVAAITGSGGSTHYADSVKGRFPISRDNAKNTVYLQMNCLKPEDTAVYYCAAVPRYQYGYLGQGTQVTVSS | low polyreactivity
QVQLVESGGGLVQAGGRLRISSAASGRIFAYYAMGWYRQAPGKERELVAANTTNGGGTYYADSVKGRFTISRDNAKNTVSLQMNSLNPEDPAFYYCATQFEGPAGFNNWGQGTQVTVSS | low polyreactivity
QVQLVESGGGLVQAGGRLRLRCAASGFIFSIYTMGWYRQAPGKERELVAAISWSGGSKYYADSVKGRFTISRDNAKNTVYLQMNSLKPEDTAVYYCNRVQFSPVYRFREYDYWGQGTQVTVSS | high polyreactivity
QVQLVESGGGLVQAGGRLRLSCAASGFIFKYNAMGWSRQAPGKERELVAAISRGGRTYYADSVKGRFTISRDNAKNTVYLQMNSLKPEDTAVYYCAAVSHYPAGYDYWGQGTQVTVSS | high polyreactivity
QVQLVESGGGLVQAGGRLRLSCAASGFIVDDNTIGWYRQAPGKEREVFAAISYSAGSTYYADSVKGRFTISRDNAKNTVYFQLNSLKPEDTAVYYCAAQHYWVTCYLSSYDYWGQGTQVSVSS | low polyreactivity
QVQLVESGGGLVQAGGRLRLSCAASGFTFPWYTMGWYRQAPGKERELVAAISRSGGSTYYADSVKGRFTISRDNAKNTVYLQLNSLKPEDTAVYYCAAEQTRWPDITRYDYWGQGTQVTVSS | high polyreactivity
QVQLVESGGGLVQAGGRLRLSCAASGFTFSRNAMGWYRQAPGKERELVAAITASTSRTYYADSVKGRFTISRDNAKNTVYLQMTSLKQEDSAVYYCNAGRPGRGPYGYWGQGTQVTVSS | high polyreactivity
QVQLVESGGGLVQAGGRLRLSCAASGFTFSYNTMGWYRQEPGKERELVAAITGDVSTNYADSVKGRFTISRDNAKNTVYLQMNSVKPEDTAVYYCAARPNFPGYEDLSVDYDYWGQGTQVTVSS | low polyreactivity
QVQLVESGGGLVQAGGRLRLSCAASGFTFWRNAMGWYRQAPGKERELVAAISRRGGNTYYADSVKGRFTISRDNAKNCVYLQMNSLKPEDTAVYYCAADYSYYYGYDYWGQGTQVTVSS | high polyreactivity
QVQLVESGGGLVQAGGRLRLSCAASGFTVSYYGMGWSRQAPGKERELVATISSSGSTNYADSVKGRFTISRDNAKNSVYLQMNSLKPEDTAVYYCATDYADAGYYTTFDYWGQGTQVTVSS | high polyreactivity
QVQLVESGGGLVQAGGRLRLSCAASGFTYPEYAMGWYRQAPGKEMELVAAIDSGDGSTYYADSVKGRFTISRDNAKNTVYLQMISLKPEDTAVYYCATDRYPHSATPGDYWGQGTQVTVSS | low polyreactivity
QVQLVESGGGLVQAGGRLRLSCAASGFYLNAMGWYRQAPGKDRELVATITSSATNTYYADSVKGRFTISRDNAKNTVYLQMNSLKPEDTAVYYCNARYTSHTLADGVYLYDYWGQGTQVTVSS | low polyreactivity
QVQLVESGGGLVQAGGRLRLSCAASGGIFESYAMGWYRQAPGKERELVATITGSGGNTYYADSVKGRFTISRDNAKNTVYLQMNSLKPEDTAVYYCAADTYITPHYLPLLYFLMEYWGQGTQVTVSS | low polyreactivity
QVQLVESGGGLVQAGGRLRLSCAASGGTFYLNAMGWYRQAPGKERELVAAISGSGTSTYYADSVKGRFTISRDNAKNTVYLQMNSLKPEDTAVYYCAADGTYFYIYLGDRFDYWGQGTQVTVSS | low polyreactivity
QVQLVESGGGLVQAGGRLRLSCAASGIFGYNALGWYRQAPGKERELVAAITSSGTSTYYADSVKGRFTISRDNAKNTVYLQMNSLKPEDTAVYYCAALHSGTWTGYGYWGQGTQVTVSS | low polyreactivity
QVQLVESGGGLVQAGGRLRLSCAASGIIFFWYVRGWYRQAPGKERELVAAINRGGITNYADSVKGRFTISRDNAKNTVYLQMNSLKTEDTAVYYCNKDWKTESWFNRYGGYGIEDDYWGQGTQVTVSS | high polyreactivity

Sequence | polyreactivity (PSR sort gate)
QVQLVESGGGLVQAGGRLRLSCAASGIIFGTYAMGWYRPAPGQERELVAAINTGGTTYYADSVKGRFTISRDNAKNTVYLQMNSLKPEDTAVYYCAAEFTRYRYYYHKRPMDYWGQGTQVTVSS | low polyreactivity
QVQLVESGGGLVQAGGRLRLSCAASGIIFPRYMGWYRQAPGKERELVAAIRWSSDDTNYADSVKGRFTISRDNAKNTVYLQMNSLKPEDTAVYYCAAHSYYDRTIQFEFSARTYDYWGQGTQVTVSS | low polyreactivity
QVQLVESGGGLVQAGGRLRLSCAASGIIFQYNAMGWYRQAPGKEREFVAAISYGGTSTYYADSVKGRFTISRDNAKNTVYLQMNSLKPEDTAVYYCAADYQGYTPSDGRYYWGQGTQVTVSS | low polyreactivity
QVQLVESGGGLVQAGGRLRLSCAASGIIVGLYTMGWYRQARGKERELVAAISDSGGRTYYADSVKGRFTISRDNVKNTVYLQMNSLKPEDTAVYYCATRWPHYGGYYYWGQGTQVTVSS | high polyreactivity
QVQLVESGGGLVQAGGRLRLSCAASGINLGRYAMGWYRQAPGKERELVASISWSGGSTYYADSVKGRFTISRDNAKNTVYLQMNSLIPEDPAVYYCAATYWKSRYGVRGYPFGYWGQGTQVTVSS | high polyreactivity
QVQLVESGGGLVQAGGRLRLSCAASGITFQPNAMGWYRQAPGKERELVARITRGGGRTYYADSVKGRFTISRDNAKNTVYLLMHSLKPEDTAVYYCAADYSYIYGFDYWGQGTQVTVSS | low polyreactivity
QVQLVESGGGLVQAGGRLRLSCAASGITFRWYAMGWYRQAPGKERELVAAITTSGDSTYYADSVKGRFTISRDNAKNTVYLQMNSLKPEDTAVNYCAAKYQSLRTYGYGFDYWGQGTQVTVSS | high polyreactivity
QVQLVESGGGLVQAGGRLRLSCAASGITFSYYAMGRYRQAPGKERELVAAISSGGRTYYADSVKGRFTISRDNAKNTVYLQMNSLKQEDTAVYYCAASFLVTSREYDYWGQGTQVTVSS | high polyreactivity
QVQLVESGGGLVQAGGRLRLSCAASGITFWSNALGWYRQAPGKERELVAAMTSGGNTNYADSVKGRFTISRDNAKNTVYLQMNSLKPEDTAVYYCATKQLLRRRQGYYWVGSKHDYWGQGTQVTVSS | high polyreactivity
QVQLVESGGGLVQAGGRLRLSCAASGLIFTWNAMGWYRQAPGKERELVAAISTGGSTSYADSVKGRFTISRDNAMNTVYLQMNSMKPEDTAVYYCARDSSIWSHGSWYDYWGQGTQVTVSS | low polyreactivity
QVQLVESGGGLVQAGGRLRLSCAASGNTLRGYAMGWYRPAPGKERELVSAISYSSVNTYYADSVKGRFTISRDNAKNTVYLQMNSLKPEDTAVYYCAADYYYYRRTQYDLRGYPYYYWGQGTQVTVSS | low polyreactivity
QVQLVESGGGLVQAGGRLRLSCAASGRIFAKNAMGWYRQAPGKERELVAAISGSGGSTYYADSVKGRFTISRDNAKNTVYLQMNSMKPDDTAVYYCAATRGPNYRNGYWGQGTQVTVSS | high polyreactivity
QVQLVESGGGLVQAGGRLRLSCAASGRIFDYNAMGWNRQAPWKERELVAAIRTSGGSTYYADSVKGRFTISRDNAKNTVYLPMISLKPEDNAVYYCAATSRRYRVRYDSWGQGTQVTVSS | high polyreactivity
QVQLVESGGGLVQAGGRLRLSCAASGRIFIRNAMGWYRQAPGKERELVAAIDSVGSTYYADSVKGRFTISRDNAKNTVYLQMNSLKPEDTAVYYCAARGWKYASPYWRYYYWGQGTQVTVSS | low polyreactivity
QVQLVESGGGLVQAGGRLRLSCAASGRIFKFYAMGWYRQAPGKERELVAAIRRGGTTNYADSVKGRFTISRDNAKNTFYLQMNSLKPEDTAVYFCAADGWYRVLTGLVSSWKYWGQGTQVTVSS | high polyreactivity
QVQLVESGGGLVQAGGRLRLSCAASGRIFLGYTMGSYRQAPWKERELVAAISKSGDSTYYADAVKGRFTFSSDNAKYTVFLQMNSLKPEDTAVYYCATRGYQSLRHQGTDDYWGQGTQVTVSS | high polyreactivity
QVQLVESGGGLVQAGGRLRLSCAASGRIFQYNAMGWYRQAPGKERELVAAITSSGGSTYYADSVKGRFTISRDNAKNTVYLQMNSLKPEDTAVYYCAAKRPQYYVQFGYWGHGTQVTVSS | high polyreactivity
QVQLVESGGGLVQAGGRLRLSCAASGRIFVRYVMGWYRQAPGQERALVAAISSSGGSTYYADSVKGRYTISRDTAKKTVYLQMNSLKPEDTAVYYCATDLIDKYFLPYDYWGQGTQVTVSS | low polyreactivity
QVQLVESGGGLVQAGGRLRLSCAASGRIFVYYMGWNIQAPGKERELVAAISFGGGSTYYADSVKGRFTISRDNAKNSVYLQMYSLKPEDTAVYYCNADGDDLDWNYYLVQYDYWGQGTQVTVSS | low polyreactivity
QVQLVESGGGLVQAGGRLRLSCAASGRIFYFYDMGWYRQAPGTERELGAAISRGGSTNYADSVKGRFTISRDNAKNTVYLQMNRLKPQDTAVYYCNAGLYDLRDIAGYSDYDYWGQGTQVTVSS | low polyreactivity
